The test system of this series is Nc1nc2c(ncn2[C@@H]2O[C@H](COP(=O)(O)O)[C@@H](O)[C@H]2O)c(=O)[nH]1. The series can be described thus: purified protein. The conditions noted are these: pH 7.9.

In general, kcat refers to the number of substrate molecules converted per active site and unit of time at saturation.

As for (Streptomyces scabiei 87.22), the K0.5 worked out at 289 ± 18 µM and the kcat is over 3 s⁻¹.

Values taken from article PMC7828395, “Mapping the DNA-Binding Motif of Scabin Toxin, a Guanine Modifying Enzyme from Streptomyces scabies” (Toxins, 2021).
